Test results published in PMC10781284, “Fluorescence Super-Resolution Imaging Chip for Gene Silencing Exosomes”.

Target: PD-L1 (on HeLa exosomes) (human, UniProt Q9NZQ7 19-290)
Assay: fluorescence colocalization on captured exosomes (AF647/PKH26); 1 nM aptamer; exosomes captured by CD63 aptamer; microfluidic channel, PBS (10 mM, pH 7.4) washes, 2% BSA block at room temperature; exosomes in culture medium; binding buffer of the aptamer not stated
Conditions: protein: native; label: 5' Alexa Fluor 647

PD-L1 (on HeLa exosomes), sequence (Q9NZQ7 19-290): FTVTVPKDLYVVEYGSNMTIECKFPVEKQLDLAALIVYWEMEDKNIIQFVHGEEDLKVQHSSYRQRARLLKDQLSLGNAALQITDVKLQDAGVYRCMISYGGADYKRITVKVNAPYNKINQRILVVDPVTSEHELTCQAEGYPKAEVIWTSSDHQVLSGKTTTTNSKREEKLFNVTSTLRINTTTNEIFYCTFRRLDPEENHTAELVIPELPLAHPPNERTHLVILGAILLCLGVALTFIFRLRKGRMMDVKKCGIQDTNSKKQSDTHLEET

Q: Does TACAGGTTCTGGGGGGTGGGTGGGGAACCTGTT (ssDNA) [PD-L1 aptamer (PD-L1 adaptor strand)] bind?
A: binds
